Measured values reported in article PMC11485048.

How the values were obtained:
[1] = biological target: SpyTag-noro-VLP (norovirus-like particle of the capsid protein VP1 with a C-terminally fused SpyTag) (norovirus (genotype not stated)); assay: covalent SpyCatcher/SpyTag conjugation read by SDS-PAGE densitometry; SpyCatcher-P domain conjugated on SpyTag-noro-VLP as in the first experiment; nonconjugated antigen removed by size-exclusion chromatography (HiPrep 16/60 Sephacryl S-500 HR); second immunization experiment
[2] = biological target: SpyTag-noro-VLP (norovirus-like particle of the capsid protein VP1 with a C-terminally fused SpyTag) (norovirus (genotype not stated)); assay: covalent SpyCatcher/SpyTag conjugation read by SDS-PAGE densitometry; SpyCatcher-antigen mixed with SpyTag-noro-VLP at 2:1 (P domain) or 4:1 (peptides) molar ratio, about 40 hours at +4 °C; unreacted SpyCatcher-antigen removed by dialysis through a 1000 kDa cut-off membrane; first immunization experiment

Work on “SpyCatcher-P domain fusion (furin P domain, residues 444-576) (from UniProt P09958 444-576)” yielded a conjugation efficiency (%) [1] of 5% and a conjugation efficiency (%) [2] of 20%.
